Source: FireProtDB (doi:10.1021/bi981698k)

Conditions: Saccharomyces cerevisiae (strain ATCC 204508 / S288c), 25 °C, GdnHCl, CD, NaCl 40 mM
[1] = pH 4, acetate-HCl 20 mM, structure 1YCC
[2] = pH 5, acetate-HCl 20 mM, structure 1YCC
[3] = pH 5.8, MES 20 mM, structure 1YCC
[4] = pH 6.12, MES 20 mM, structure 1YCC
[5] = pH 6.5, MES 20 mM, structure 1YCC
[6] = pH 7.2, Tris 20 mM, structure 1YCC
[7] = pH 7.5, Tris 20 mM, structure 1YCC

Chain of Cytochrome c isoform 1 K79H, P00044 (P00044 whole entry K79H, canonical isoform): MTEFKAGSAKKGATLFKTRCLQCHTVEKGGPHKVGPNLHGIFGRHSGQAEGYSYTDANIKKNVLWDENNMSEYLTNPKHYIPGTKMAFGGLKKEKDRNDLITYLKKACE
Chain of Cytochrome c isoform 1 wild type, P00044 (P00044 whole entry, canonical isoform): as the sequence (P00044 whole entry K79H, canonical isoform) above, with H79K counted along it

For Cytochrome c isoform 1 K79H, P00044, the denaturant m value [1] was 3.33 kcal/mol/M, the “denaturant midpoint (higher = more stable)” value (“denaturant midpoint” for short) [1] was 0.51 M and the unfolding free energy [1] was 1.71 kcal/mol. The denaturant m value [2] was 3.67 kcal/mol/M, the “denaturant midpoint” value [2] was 0.98 M and the unfolding free energy [2] was 3.6 kcal/mol. The denaturant m value [3] was 3.54 kcal/mol/M, the “denaturant midpoint” value [3] was 1.05 M and the unfolding free energy [3] was 3.7 kcal/mol. The denaturant m value [4] was 3.31 kcal/mol/M, the “denaturant midpoint” value [4] was 1.09 M and the unfolding free energy [4] was 3.6 kcal/mol. For the same substance, the denaturant m value [5] was 3.14 kcal/mol/M, the “denaturant midpoint” value [5] was 1.12 M and the unfolding free energy [5] was 3.52 kcal/mol. The denaturant m value [6] was 2.97 kcal/mol/M, the “denaturant midpoint” value [6] was 1.15 M and the unfolding free energy [6] was 3.41 kcal/mol. The denaturant m value [7] was 3.2 kcal/mol/M, the “denaturant midpoint” value [7] was 1.15 M and the unfolding free energy [7] was 3.68 kcal/mol.

With “Cytochrome c isoform 1 wild type, P00044” the denaturant m value (pH 4, acetate-HCl 20 mM) was 4.1 kcal/mol/M, the “denaturant midpoint” value (pH 4, acetate-HCl 20 mM) was 0.66 M and the unfolding free energy (pH 4, acetate-HCl 20 mM) was 2.72 kcal/mol. For the same substance, the denaturant m value (pH 4.5, acetate-HCl 20 mM) was 4.28 kcal/mol/M, the “denaturant midpoint” value (pH 4.5, acetate-HCl 20 mM) was 0.96 M and the unfolding free energy (pH 4.5, acetate-HCl 20 mM) was 4.11 kcal/mol. The denaturant m value (pH 5, acetate-HCl 20 mM) was 4.42 kcal/mol/M, the “denaturant midpoint” value (pH 5, acetate-HCl 20 mM) was 1.08 M and the unfolding free energy (pH 5, acetate-HCl 20 mM) was 4.77 kcal/mol. The denaturant m value (pH 5.8, MES 20 mM) was 4.84 kcal/mol/M, the “denaturant midpoint” value (pH 5.8, MES 20 mM) was 1.09 M and the unfolding free energy (pH 5.8, MES 20 mM) was 5.28 kcal/mol. For the same substance, the denaturant m value (pH 6.12, MES 20 mM) was 4.86 kcal/mol/M, the “denaturant midpoint” value (pH 6.12, MES 20 mM) was 1.16 M and the unfolding free energy (pH 6.12, MES 20 mM) was 5.66 kcal/mol. The denaturant m value (pH 6.5, MES 20 mM) was 4.45 kcal/mol/M, the “denaturant midpoint” value (pH 6.5, MES 20 mM) was 1.23 M and the unfolding free energy (pH 6.5, MES 20 mM) was 5.44 kcal/mol. For the same substance, the denaturant m value (pH 7.2, Tris 20 mM) was 4.31 kcal/mol/M, the “denaturant midpoint” value (pH 7.2, Tris 20 mM) was 1.09 M and the unfolding free energy (pH 7.2, Tris 20 mM) was 4.68 kcal/mol. For the same substance, the denaturant m value (pH 7.5, Tris 20 mM) was 4.92 kcal/mol/M, the “denaturant midpoint” value (pH 7.5, Tris 20 mM) was 1.15 M and the unfolding free energy (pH 7.5, Tris 20 mM) was 5.66 kcal/mol.
